Reference: patent publication US20230002480A1

Columns and labels:
Assay in all cases: cell-based or functional assay
[1] = molecular target: HIV-1 Env of pseudovirus Ce2010_F5 (HIV-1)
[2] = molecular target: HIV-1 Env of pseudovirus C4118.c09 (HIV-1)
[3] = molecular target: HIV-1 Env of pseudovirus 6244_13_B5_4576 (HIV-1)
[4] = molecular target: HIV-1 Env of pseudovirus 1394C9G1(Rev-) (HIV-1)
[5] = molecular target: HIV-1 Env of pseudovirus C3347.c11 (HIV-1)
[6] = molecular target: HIV-1 Env of pseudovirus CNE30 (HIV-1)
[7] = molecular target: HIV-1 Env of pseudovirus CNE20 (HIV-1)
[8] = molecular target: HIV-1 Env of pseudovirus 1054_07_TC4_1499 (HIV-1)
[9] = molecular target: HIV-1 Env of pseudovirus CAP45.2.00.G3 (HIV-1)
[10] = molecular target: HIV-1 Env of pseudovirus ZM109F.PB4 (HIV-1)
[11] = molecular target: HIV-1 Env of pseudovirus CNE58 (HIV-1)
[12] = molecular target: HIV-1 Env of pseudovirus R3265.c06 (HIV-1)
[13] = molecular target: HIV-1 Env of pseudovirus SC422661.8 (HIV-1)
[14] = molecular target: HIV-1 Env of pseudovirus 62357_14_D3_4589 (HIV-1)
[15] = molecular target: HIV-1 Env of pseudovirus BJOX010000.06.2 (HIV-1)
[16] = molecular target: HIV-1 Env of pseudovirus BJOX025000.01.1 (HIV-1)
[17] = molecular target: HIV-1 Env of pseudovirus T257-31 (HIV-1)
[18] = molecular target: HIV-1 Env of pseudovirus Ce0682_E4 (HIV-1)
[19] = molecular target: HIV-1 Env of pseudovirus X1193_c1 (HIV-1)
[20] = molecular target: HIV-1 Env of pseudovirus 0260.v5.c36 (HIV-1)
[21] = molecular target: HIV-1 Env of pseudovirus C1080.c03 (HIV-1)
[22] = molecular target: HIV-1 Env of pseudovirus Du156.12 (HIV-1)
[23] = molecular target: HIV-1 Env of pseudovirus Du422.1 (HIV-1)
[24] = molecular target: HIV-1 Env of pseudovirus ZM214M.PL15 (HIV-1)
[25] = molecular target: HIV-1 Env of pseudovirus THRO4156.18 (HIV-1)
[26] = molecular target: HIV-1 Env of pseudovirus Du172.17 (HIV-1)
[27] = molecular target: HIV-1 Env of pseudovirus P0402_c2_11 (HIV-1)
[28] = molecular target: HIV-1 Env of pseudovirus 246F C1G (HIV-1)
[29] = molecular target: HIV-1 Env of pseudovirus T251-18 (HIV-1)
[30] = molecular target: HIV-1 Env of pseudovirus 191955_A11 (HIV-1)
[31] = molecular target: HIV-1 Env of pseudovirus Q842.d12 (HIV-1)

## N49P7 (antibody)
[1]
  neutralization IC50: 0.13 µg/mL
  neutralization IC80: 0.547 µg/mL
  neutralization MPI: 100
[2]
  neutralization IC50: 0.043 µg/mL
  neutralization IC80: 0.147 µg/mL
  neutralization MPI: 100
[3]
  neutralization IC50: 0.111 µg/mL
  neutralization IC80: 0.386 µg/mL
  neutralization MPI: 100
[4]
  neutralization IC50: 3.84 µg/mL
  neutralization IC80: 21.1 µg/mL
  neutralization MPI: 94
[5]
  neutralization IC50: 0.024 µg/mL
  neutralization IC80: 0.067 µg/mL
  neutralization MPI: 100
[6]
  neutralization IC50: 0.18 µg/mL
  neutralization IC80: 0.609 µg/mL
  neutralization MPI: 100
[7]
  neutralization IC50: 0.028 µg/mL
  neutralization IC80: 0.1 µg/mL
  neutralization MPI: 100
[8]
  neutralization IC50: 0.494 µg/mL
  neutralization IC80: 2.31 µg/mL
  neutralization MPI: 100
[9]
  neutralization IC50: 0.06 µg/mL
  neutralization IC80: 0.29 µg/mL
  neutralization MPI: 100
[10]
  neutralization IC50: 0.034 µg/mL
  neutralization IC80: 0.153 µg/mL
  neutralization MPI: 100
[11]
  neutralization IC50: 0.029 µg/mL
  neutralization IC80: 0.067 µg/mL
  neutralization MPI: 100
[12]
  neutralization IC50: 0.048 µg/mL
  neutralization IC80: 0.282 µg/mL
  neutralization MPI: 100
[13]
  neutralization IC50: 0.114 µg/mL
  neutralization IC80: 0.32 µg/mL
  neutralization MPI: 100
[14]
  neutralization IC50: 0.025 µg/mL
  neutralization IC80: 0.102 µg/mL
  neutralization MPI: 100
[15]
  neutralization IC50: 0.085 µg/mL
  neutralization IC80: 0.592 µg/mL
  neutralization MPI: 100
[16]
  neutralization IC50: 0.038 µg/mL
  neutralization IC80: 0.236 µg/mL
  neutralization MPI: 100
[17]
  neutralization IC50: 0.158 µg/mL
  neutralization IC80: 0.619 µg/mL
  neutralization MPI: 100
[18]
  neutralization IC50: 0.041 µg/mL
  neutralization IC80: 0.131 µg/mL
  neutralization MPI: 100
[19]
  neutralization IC50: 0.016 µg/mL
  neutralization IC80: 0.06 µg/mL
  neutralization MPI: 100
[20]
  neutralization IC50: 0.354 µg/mL
  neutralization IC80: 0.884 µg/mL
  neutralization MPI: 100
[21]
  neutralization IC50: 0.114 µg/mL
  neutralization IC80: 0.765 µg/mL
  neutralization MPI: 100
[22]
  neutralization IC50: 0.032 µg/mL
  neutralization IC80: 0.086 µg/mL
  neutralization MPI: 100
[23]
  neutralization IC50: 4.5 µg/mL
  neutralization IC80: 19.5 µg/mL
  neutralization MPI: 93
[24]
  neutralization IC50: 0.213 µg/mL
  neutralization IC80: 0.953 µg/mL
  neutralization MPI: 100
[25]
  neutralization IC50: 2.34 µg/mL
  neutralization IC80: 12.4 µg/mL
  neutralization MPI: 99
[26]
  neutralization IC50: 0.102 µg/mL
  neutralization IC80: 0.668 µg/mL
  neutralization MPI: 100
[27]
  neutralization IC50: 0.014 µg/mL
  neutralization IC80: 0.061 µg/mL
  neutralization MPI: 100
[28]
  neutralization IC50: 0.094 µg/mL
  neutralization IC80: 0.255 µg/mL
  neutralization MPI: 100
[29]
  neutralization IC50: 0.178 µg/mL
  neutralization IC80: 0.62 µg/mL
  neutralization MPI: 100
[30]
  neutralization IC50: 1.81 µg/mL
  neutralization IC80: 8.87 µg/mL
  neutralization MPI: 99
[31]
  neutralization IC50: 0.021 µg/mL
  neutralization IC80: 0.06 µg/mL
  neutralization MPI: 100
